T1: recombinant mature myostatin (human, produced in E. coli) (human, UniProt O14793 267-375)
T1 construct: mature; also called GDF-8
T1 sequence (looked up): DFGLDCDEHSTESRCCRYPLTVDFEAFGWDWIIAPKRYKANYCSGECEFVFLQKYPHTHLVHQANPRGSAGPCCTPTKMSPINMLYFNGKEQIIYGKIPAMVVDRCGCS


How the values were obtained:
[1] = molecular target: T1, recombinant mature myostatin (human, …); assay: KinExA solution based assay or BIAcore assay (not said which)
[2] = molecular target: T1, recombinant mature myostatin (human, …); assay: cell-based or functional assay
[3] = molecular target: T1, recombinant mature myostatin (human, …); assay: cell-based or functional assay; remark: listed apart in the source

Row | Kd [1] | Binder | further results
1 | 6 pM | 2x mTN8-19-21 peptibody (Fc fusion, Human Fc form) GGGGGAQSEYQGLCTRWPWMCPPQGWKLEGSGSATGGSGSTASSGSGSATGSEYQGLCTRWPWMCPPQGWKLE | –
2 | 3 pM | 2x mTN8-19-33 peptibody (Fc fusion) GGGGGAQPESQGHCTRWPWMCPPQGWGLEGSGSATGGSGSTASSGSGSATGPESQGHCTRWPWMCPPQGWGLE | –
3 | 12 pM | 2x mTN8-19-7 peptibody (Fc fusion) GGGGGAQLADHGQCIRWPWMCPPEGWELEGSGSATGGSGSTASSGSGSATGLADHGQCIRWPWMCPPEGWELE | –
4 | – | QGHCTRWPWMCPPY [TN8-19 peptide] | IC50 (read off the curve); luciferase activity, C2C12 pMARE-luc reporter cells, 4 nM myostatin [2]: ~20 µM
5 | – | recombinant human activin receptor IIB/Fc chimera (R&D Systems) (Fc fusion, UniProt Q13705 19-134, looked up, not shown: a dimerising Fc or GST) SGRGEAETRECIYYNANWELERTNQSGLERCEGEQDKRLHCYASWRNSSGTIELVKKGCWLDDFNCYDRQECVATEENPQVYFCCCEGNFCNERFTHLPEAGGPEVTYEPPPTAPT | IC50 (nM), C2C12 pMARE-luc myostatin activity assay [3]: ~83 nM

From patent US20140294866A1 (Amgen, published 2014)
